# B1: Myc-tagged ZDHHC17 ANK (1-7) [human] / Flag-MAP2K4 [human] (parent complex)
# chain 1: THIDDYSTWDIVKATQYGIYERCRELVEAGYDVRQPDKENVTLLHWAAINNRIDLVKYYISKGAIVDQLGGDLNSTPLHWATRQGHLSMVVQLMKYGADPSLIDGEGCSCIHLAAQFGHTSIVAYLIAKGQDVDMMDQNGMTPLMWAAYRTHSVDPTRLLLTFNVSVNLGDKYHKNTALHWAVLAGNTTVISLLLEAGANVDAQNIKGESALDLAKQRKNVWMINHLQEARQAKGYDN
# chain 2: MAAPSPSGGGGSGGGSGSGTPGPVGSPAPGHPAVSSMQGKRKALKLNFANPPFKSTARFTLNPNPTGVQNPHIERLRTHSIESSGKLKISPEQHWDFTAEDLKDLGEIGRGAYGSVNKMVHKPSGQIMAVKRIRSTVDEKEQKQLLMDLDVVMRSSDCPYIVQFYGALFREGDCWICMELMSTSFDKFYKYVYSVLDDVIPEEILGKITLATVKALNHLKENLKIIHRDIKPSNILLDRSGNIKLCDFGISGQLVDSIAKTRDAGCRPYMAPERIDPSASRQGYDVRSDVWSLGITLYELATGRFPYPKWNSVFDQLTQVVKGDPPQLSNSEEREFSPSFINFVNLCLTKDESKRPKYKELLKHPFILMYEERAVEVACYVCKILDQMPATPSSPMYVD
# Variants of: B1
# Assay: co-immunoprecipitation, quantified immunoblot; HEK293 cell lysates; parent: 1; read off a plot
row,Variant,ratio to parent
1,chain 1 Y6G,~0.35
2,chain 1 R52G,~0.35
3,"chain 1 R83G, chain 1 R150G",~0.75

# The next lines start with the values.
row,ratio to parent,Variant
1,~0.33,chain 1 Y17G
2,~0.75,chain 1 D5G
3,~0.85,chain 1 Q84G
4,~0.43,chain 1 D4G
5,~0.42,"chain 1 W80G, chain 1 F117G"

# From paper PMC6956818, “Activation of JNK and p38 MAPK Mediated by ZDHHC17 Drives Glioblastoma Multiforme Development and Malignant Progression” (Theranostics, 2020)
